Experimental data taken from paper PMC5021801.

Experiments:
[1] = target: hypercleavable mutant form of TgAMA1 (AMA1^L/G) on Toxoplasma gondii tachyzoites (Toxoplasma gondii) (UniProt B6KAM0)
[2] = target: FLAG-tagged wild-type TgAMA1 on Toxoplasma gondii tachyzoites (Toxoplasma gondii) (UniProt B6KAM0)

D3 domain of TgRON2 fused to glutathione S-transferase (GST-D3) (domain or fragment)
constitutive cleavage and shedding of AMA1^L/G, microneme secretion assay, saturating (1 µM) GST-D3 against GST; percent inhibition [1]: 50% | amount of FLAG-tagged TgAMA1 ectodomain shed into the supernatant, constitutive microneme secretion assay, against GST-treated controls; dose dependent from 0.01 to 1 µM GST-D3, fold decrease at 5 µM [2]: 5.7 fold
